Assay results: the supplement of paper PMC10065799, “High-throughput profiling of sequence recognition by tyrosine kinases and SH2 domains using bacterial peptide display” (eLife, 2023)

Experiments:
[1] = system: c-Abl (mouse); test: phosphorylation enrichment, bacterial display (enrichment ratio); higher = better substrate or ligand; peptides without Tyr show the background
[2] = biological target: FGFR3 (UniProt P22607); test: as above
[3] = biological target: Fyn (UniProt P06241); test: as above
[4] = system: c-Src; test: as above
[5] = biological target: EPHB2 (UniProt P29323); test: as above
EPHB2, sequence (P29323 whole entry, looked up): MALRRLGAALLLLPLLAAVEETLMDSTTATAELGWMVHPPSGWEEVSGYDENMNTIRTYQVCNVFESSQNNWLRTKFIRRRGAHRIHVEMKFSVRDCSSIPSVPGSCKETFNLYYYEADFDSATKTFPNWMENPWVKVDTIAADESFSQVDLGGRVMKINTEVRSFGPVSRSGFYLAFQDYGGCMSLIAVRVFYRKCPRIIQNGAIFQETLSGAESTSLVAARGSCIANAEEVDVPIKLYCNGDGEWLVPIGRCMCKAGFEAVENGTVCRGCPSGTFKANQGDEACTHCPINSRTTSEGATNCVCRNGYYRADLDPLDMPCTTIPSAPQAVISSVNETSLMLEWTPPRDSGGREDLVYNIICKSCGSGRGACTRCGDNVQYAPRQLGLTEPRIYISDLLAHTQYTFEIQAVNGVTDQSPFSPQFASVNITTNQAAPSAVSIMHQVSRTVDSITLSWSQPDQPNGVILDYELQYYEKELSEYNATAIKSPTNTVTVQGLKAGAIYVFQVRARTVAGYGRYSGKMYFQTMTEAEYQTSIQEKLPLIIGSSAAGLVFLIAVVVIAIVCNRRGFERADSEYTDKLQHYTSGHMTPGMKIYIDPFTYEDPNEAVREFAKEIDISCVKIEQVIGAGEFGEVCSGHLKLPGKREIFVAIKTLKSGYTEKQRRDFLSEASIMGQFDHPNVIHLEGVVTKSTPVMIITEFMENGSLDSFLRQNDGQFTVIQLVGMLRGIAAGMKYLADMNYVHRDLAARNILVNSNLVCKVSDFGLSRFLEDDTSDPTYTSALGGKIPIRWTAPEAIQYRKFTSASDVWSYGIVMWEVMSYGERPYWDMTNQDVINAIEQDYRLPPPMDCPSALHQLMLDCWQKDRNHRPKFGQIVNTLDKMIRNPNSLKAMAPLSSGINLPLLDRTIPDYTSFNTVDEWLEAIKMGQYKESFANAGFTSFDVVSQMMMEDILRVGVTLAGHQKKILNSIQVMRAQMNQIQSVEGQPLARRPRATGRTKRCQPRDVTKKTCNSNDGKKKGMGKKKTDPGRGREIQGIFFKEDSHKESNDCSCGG

[6] = system: Fer (mouse); test: as above
[7] = biological target: EPHB1 (UniProt P54762); test: as above
EPHB1, sequence (P54762 whole entry, looked up): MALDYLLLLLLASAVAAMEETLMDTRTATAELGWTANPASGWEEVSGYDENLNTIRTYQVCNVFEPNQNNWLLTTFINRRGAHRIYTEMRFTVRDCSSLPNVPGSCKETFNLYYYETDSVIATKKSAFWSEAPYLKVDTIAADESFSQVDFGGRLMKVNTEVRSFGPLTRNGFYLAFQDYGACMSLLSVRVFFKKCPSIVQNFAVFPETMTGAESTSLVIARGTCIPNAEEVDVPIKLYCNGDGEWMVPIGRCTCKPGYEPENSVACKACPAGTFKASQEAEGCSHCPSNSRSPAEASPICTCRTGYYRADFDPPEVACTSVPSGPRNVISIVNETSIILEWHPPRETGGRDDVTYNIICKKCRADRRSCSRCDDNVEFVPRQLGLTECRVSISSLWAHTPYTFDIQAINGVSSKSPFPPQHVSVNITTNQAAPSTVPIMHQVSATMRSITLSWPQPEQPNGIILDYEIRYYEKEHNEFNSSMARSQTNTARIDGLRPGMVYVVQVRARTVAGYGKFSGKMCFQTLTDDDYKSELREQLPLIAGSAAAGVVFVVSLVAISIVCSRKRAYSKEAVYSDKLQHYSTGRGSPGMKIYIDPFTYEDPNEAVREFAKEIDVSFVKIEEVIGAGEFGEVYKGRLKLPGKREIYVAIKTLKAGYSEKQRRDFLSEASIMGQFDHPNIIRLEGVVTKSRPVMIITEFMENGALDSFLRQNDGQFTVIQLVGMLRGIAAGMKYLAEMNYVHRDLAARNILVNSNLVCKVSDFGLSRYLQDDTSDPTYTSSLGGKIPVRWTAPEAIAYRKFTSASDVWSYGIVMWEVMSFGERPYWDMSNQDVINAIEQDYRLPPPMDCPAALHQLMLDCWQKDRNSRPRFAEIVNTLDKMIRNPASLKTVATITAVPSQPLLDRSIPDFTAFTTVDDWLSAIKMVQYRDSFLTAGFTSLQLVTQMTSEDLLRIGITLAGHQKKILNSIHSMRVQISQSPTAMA

[8] = biological target: MERTK (UniProt Q12866); test: as above
[9] = biological target: Jak2 (UniProt O60674); test: as above
Jak2, sequence (O60674 whole entry, looked up): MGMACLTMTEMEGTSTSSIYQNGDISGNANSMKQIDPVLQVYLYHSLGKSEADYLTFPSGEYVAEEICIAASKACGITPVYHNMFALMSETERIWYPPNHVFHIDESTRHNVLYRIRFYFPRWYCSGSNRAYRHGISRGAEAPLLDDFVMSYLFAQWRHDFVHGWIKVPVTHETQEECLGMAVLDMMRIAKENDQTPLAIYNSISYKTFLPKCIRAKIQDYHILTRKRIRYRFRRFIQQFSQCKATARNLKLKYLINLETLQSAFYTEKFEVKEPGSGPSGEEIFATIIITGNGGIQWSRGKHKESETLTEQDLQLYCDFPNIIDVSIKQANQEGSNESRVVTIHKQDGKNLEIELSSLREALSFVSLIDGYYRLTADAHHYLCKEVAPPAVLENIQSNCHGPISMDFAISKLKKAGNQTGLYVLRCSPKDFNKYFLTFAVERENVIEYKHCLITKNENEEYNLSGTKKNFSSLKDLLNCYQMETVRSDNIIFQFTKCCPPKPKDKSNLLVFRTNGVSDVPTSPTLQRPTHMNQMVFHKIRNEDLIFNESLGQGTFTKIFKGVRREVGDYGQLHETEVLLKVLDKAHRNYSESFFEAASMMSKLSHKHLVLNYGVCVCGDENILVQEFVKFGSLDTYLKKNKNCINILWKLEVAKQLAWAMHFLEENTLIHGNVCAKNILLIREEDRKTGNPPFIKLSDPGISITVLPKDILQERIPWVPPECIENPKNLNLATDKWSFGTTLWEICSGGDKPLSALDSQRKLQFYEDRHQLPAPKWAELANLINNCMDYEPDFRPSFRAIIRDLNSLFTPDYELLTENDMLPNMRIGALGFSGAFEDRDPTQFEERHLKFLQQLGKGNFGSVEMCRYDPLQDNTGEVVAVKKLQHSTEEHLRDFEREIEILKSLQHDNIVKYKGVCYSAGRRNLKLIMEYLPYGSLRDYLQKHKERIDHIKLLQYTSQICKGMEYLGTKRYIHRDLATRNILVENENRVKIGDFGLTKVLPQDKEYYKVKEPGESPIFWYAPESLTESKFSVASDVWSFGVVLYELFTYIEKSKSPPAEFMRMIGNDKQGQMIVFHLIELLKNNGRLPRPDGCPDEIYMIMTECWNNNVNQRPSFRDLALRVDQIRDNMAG

[10] = biological target: Fes (UniProt P07332); test: as above
Fes, sequence (P07332 whole entry, looked up): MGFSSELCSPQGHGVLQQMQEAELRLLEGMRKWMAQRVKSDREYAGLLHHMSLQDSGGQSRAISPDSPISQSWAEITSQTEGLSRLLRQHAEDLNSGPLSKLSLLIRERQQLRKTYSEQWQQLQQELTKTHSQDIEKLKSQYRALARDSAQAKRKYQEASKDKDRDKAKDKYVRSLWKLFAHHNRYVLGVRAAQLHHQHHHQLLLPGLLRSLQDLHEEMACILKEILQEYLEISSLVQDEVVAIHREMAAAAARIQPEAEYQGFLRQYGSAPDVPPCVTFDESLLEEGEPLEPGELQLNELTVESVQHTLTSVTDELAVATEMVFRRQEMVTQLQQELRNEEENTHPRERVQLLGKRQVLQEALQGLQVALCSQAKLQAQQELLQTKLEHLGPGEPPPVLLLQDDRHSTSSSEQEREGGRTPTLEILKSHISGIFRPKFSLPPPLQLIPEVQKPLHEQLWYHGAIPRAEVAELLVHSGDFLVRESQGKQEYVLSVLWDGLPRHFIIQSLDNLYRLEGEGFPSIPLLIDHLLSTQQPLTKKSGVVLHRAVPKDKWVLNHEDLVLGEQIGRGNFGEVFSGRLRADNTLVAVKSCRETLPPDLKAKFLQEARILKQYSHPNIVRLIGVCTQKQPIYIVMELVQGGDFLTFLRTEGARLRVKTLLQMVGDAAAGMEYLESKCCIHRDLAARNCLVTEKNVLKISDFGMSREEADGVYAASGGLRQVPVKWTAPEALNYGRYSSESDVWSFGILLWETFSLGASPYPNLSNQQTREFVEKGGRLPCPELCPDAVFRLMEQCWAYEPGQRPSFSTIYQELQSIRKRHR

[11] = biological target: FGFR1 (UniProt P11362); test: as above
[12] = biological target: Hck (UniProt P08631); test: as above
Hck, sequence (P08631 whole entry, looked up): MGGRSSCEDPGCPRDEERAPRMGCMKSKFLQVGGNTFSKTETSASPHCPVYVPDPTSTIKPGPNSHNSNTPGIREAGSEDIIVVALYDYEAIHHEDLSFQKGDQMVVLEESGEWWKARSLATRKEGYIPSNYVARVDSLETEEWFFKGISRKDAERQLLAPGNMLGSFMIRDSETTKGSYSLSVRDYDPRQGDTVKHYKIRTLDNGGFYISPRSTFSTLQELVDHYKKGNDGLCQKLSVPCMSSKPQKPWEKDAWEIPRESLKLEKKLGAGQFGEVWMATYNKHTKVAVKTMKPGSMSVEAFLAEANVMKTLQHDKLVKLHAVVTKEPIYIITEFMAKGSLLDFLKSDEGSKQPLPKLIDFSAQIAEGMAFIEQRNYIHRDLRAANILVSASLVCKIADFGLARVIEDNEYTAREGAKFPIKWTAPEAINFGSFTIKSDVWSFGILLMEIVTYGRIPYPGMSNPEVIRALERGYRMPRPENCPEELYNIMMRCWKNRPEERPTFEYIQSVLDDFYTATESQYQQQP

[13] = system: AncSZ; test: as above
[14] = biological target: c-Src SH2; test: SH2 binding enrichment of the phosphorylated peptide, bacterial display (enrichment ratio); higher = better substrate or ligand; peptides without Tyr show the background
[15] = biological target: Grb2 SH2 (UniProt P62993); test: as above
Grb2 SH2, sequence (P62993 whole entry, looked up): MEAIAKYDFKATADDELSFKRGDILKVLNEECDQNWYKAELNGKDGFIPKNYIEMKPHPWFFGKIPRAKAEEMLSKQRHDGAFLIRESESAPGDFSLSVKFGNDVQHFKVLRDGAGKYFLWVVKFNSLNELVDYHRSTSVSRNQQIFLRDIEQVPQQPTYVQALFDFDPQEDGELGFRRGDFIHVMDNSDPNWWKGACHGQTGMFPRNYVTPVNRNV

[16] = biological target: SHP2-C SH2; test: as above
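Throughout, for SH2 binding enrichment of the phosphorylated peptide, bacterial display: peptide library displayed on the E. coli surface as eCPX fusions, selected cells deep-sequenced, score is each peptide's frequency after selection divided by its frequency in the input.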
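Throughout, for phosphorylation enrichment, bacterial display: 11-residue human phosphosite peptides and single-mutation variants displayed on the E. coli surface, counted by deep sequencing, each peptide's frequency after selection divided by its frequency in the unselected input library; frequency after pTyr selection over input frequency; kinase dosed for 20-30% of maximal phosphorylation in three min.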

Sequence | phosphorylation enrichment [1] | phosphorylation enrichment [2] | phosphorylation enrichment [3] | phosphorylation enrichment [4] | phosphorylation enrichment [5] | phosphorylation enrichment [6] | phosphorylation enrichment [7] | phosphorylation enrichment [8] | phosphorylation enrichment [9] | phosphorylation enrichment [10] | phosphorylation enrichment [11] | phosphorylation enrichment [12] | phosphorylation enrichment [13] | SH2 binding enrichment [14] | SH2 binding enrichment [15] | SH2 binding enrichment [16]
LGPDGYSTVDQ [ARVCF_Y901_R906Q] | 1.31 | 1.21 | 0.982 | 0.848 | 1.22 | 0.833 | 0.876 | 0.707 | 1.72 | 2.87 | 1.04 | 0.9 | 1.63 | 36 | 1.21 | 1.77
LGQGKYSEVFE [CSNK2A1_Y50_R47Q] | 0.709 | 0.591 | 0.489 | 0.574 | 0.552 | 0.455 | 0.508 | 0.535 | 0.857 | 1 | 0.51 | 0.477 | 1.05 | 3.54 | 0.95 | 0.829
LGQRIYQFIQS [DYRK1B_Y271_YF] | 1.3 | 1.5 | 2.42 | 4.15 | 5.42 | 10.1 | 11.7 | 8.85 | 0.725 | 1.26 | 2.23 | 4.98 | 0.916 | 2.23 | 1.02 | 1.33
LHAALYERKLL [TTLL5_Y542] | 0.934 | 1.13 | 1.12 | 0.479 | 0.798 | 0.63 | 1.27 | 0.544 | 1.04 | 1.91 | 0.896 | 0.772 | 1.43 | 0.622 | 0.621 | 0.835
LHNLSYQLEAE [PKP2_Y616] | 1.36 | 0.934 | 0.393 | 0.646 | 0.615 | 0.605 | 0.81 | 0.517 | 1.37 | 1.45 | 0.483 | 0.699 | 1.12 | 0.425 | 0.917 | 0.512
LIGWRYDDPEV [HSPA9_Y128_R126W] | 0.652 | 0.607 | 0.538 | 0.43 | 0.859 | 0.416 | 0.544 | 0.451 | 1.17 | 1.24 | 0.419 | 0.471 | 0.984 | 3.68 | 1.01 | 1
LILENYGADID [DNAH5_Y596] | 0.841 | 1.32 | 0.883 | 0.56 | 0.856 | 0.809 | 1.11 | 0.574 | 1.25 | 1.4 | 0.935 | 0.889 | 1.84 | 0.669 | 0.939 | 0.685
LKGQVYILGQE [ASS1_Y359_R363Q] | 1.77 | 1.26 | 0.816 | 1.28 | 0.848 | 0.802 | 1.09 | 0.843 | 1.98 | 2.47 | 0.939 | 1.07 | 1.84 | 0.539 | 1.17 | 0.761
LKRCQYVTKKV [ALDOA_Y204_E207K] | 0.605 | 0.548 | 0.806 | 0.545 | 0.506 | 0.582 | 0.432 | 0.535 | 0.752 | 0.821 | 0.807 | 0.371 | 1 | 0.788 | 0.946 | 1.02
LLIVEYAKFGS [RET_Y806_YF] | 1.67 | 1.36 | 1.4 | 1.13 | 1.72 | 1.16 | 5.93 | 0.585 | 1.6 | 1.83 | 0.909 | 1.25 | 1.79 | 1.05 | 1.14 | 1.29
LLNAIYLSAKW [SERPING1_Y294] | 1.22 | 2.29 | 1.12 | 1.04 | 0.794 | 0.692 | 1.3 | 0.503 | 1.41 | 1.66 | 0.464 | 2.18 | 1.61 | 0.686 | 1.06 | 0.553
LLPNAYIYVVQ [L1CAM_Y418_A415P] | 1.07 | 1.5 | 1.05 | 1 | 1.32 | 0.539 | 1.71 | 1.01 | 1.69 | 2.47 | 1.34 | 0.908 | 2.28 | 0.432 | 0.683 | 0.707
LLQKTYNFNVL [SLC4A1_Y553_P548L_YF] | 0.77 | 1.24 | 0.749 | 0.594 | 0.984 | 1.05 | 0.909 | 0.997 | 0.81 | 1.2 | 0.889 | 0.88 | 1.41 | 0.593 | 1.09 | 0.916
LLREWYMIFSR [HUWE1_Y4066_I4069F] | 1.8 | 1.14 | 0.755 | 1.45 | 1.57 | 0.943 | 1.07 | 0.932 | 2.17 | 2 | 0.713 | 0.915 | 2.11 | 0.852 | 1.21 | 1.05
LLRLAYLADVF [ZBED5_Y476_I480V] | 0.704 | 0.725 | 0.484 | 0.47 | 0.583 | 0.633 | 0.74 | 0.537 | 0.924 | 1.19 | 0.577 | 0.628 | 1.18 | 1.82 | 1.97 | 2.41
LLTKVYVVEGS [ZMPSTE24_Y253_P248L] | 0.773 | 1.23 | 0.586 | 0.657 | 0.994 | 0.819 | 0.816 | 0.668 | 1.23 | 2 | 0.9 | 0.795 | 1.65 | 0.456 | 0.795 | 0.66
LMFPDYLPCSV [SAG_Y129_T125M] | 0.985 | 4.58 | 0.743 | 0.772 | 0.92 | 1.19 | 1.07 | 0.486 | 3.69 | 1.55 | 7.55 | 0.604 | 2.76 | 0.57 | 0.921 | 0.704

Sequence | phosphorylation enrichment [1] | phosphorylation enrichment [2] | phosphorylation enrichment [3] | phosphorylation enrichment [4] | phosphorylation enrichment [5] | phosphorylation enrichment [6] | phosphorylation enrichment [7] | phosphorylation enrichment [8] | phosphorylation enrichment [9] | phosphorylation enrichment [10] | phosphorylation enrichment [11] | phosphorylation enrichment [12] | phosphorylation enrichment [13] | SH2 binding enrichment [14] | SH2 binding enrichment [15] | SH2 binding enrichment [16]
LMIEEYLTKEL [BAG3_Y457] | 1.42 | 1.14 | 0.723 | 1.18 | 0.993 | 0.629 | 0.911 | 0.872 | 2.83 | 2.04 | 0.759 | 0.685 | 2.23 | 0.514 | 0.981 | 1.16
LNNIIYRLERA [CUX2_Y1470_V1472L] | 1.31 | 1.19 | 2.59 | 3.45 | 1.37 | 0.812 | 1.24 | 1.1 | 1.27 | 1.37 | 0.907 | 1.01 | 1.67 | 0.557 | 1.62 | 1.84
LPPGTYPSDFA [UNC5B_Y511] | 0.565 | 0.595 | 0.451 | 0.422 | 0.412 | 0.5 | 0.482 | 0.424 | 0.791 | 0.96 | 0.543 | 0.461 | 0.744 | 0.369 | 0.84 | 0.714
LQRCKNSHMEP [TEX45_Y434_Y434N] | 0.641 | 0.729 | 0.956 | 0.747 | 0.848 | 0.782 | 0.939 | 0.809 | 0.9 | 0.865 | 0.958 | 0.741 | 0.599 | 0.691 | 1.15 | 0.942
LQRVQYDLQKA [DSP_Y1512] | 0.496 | 0.816 | 0.582 | 0.409 | 0.907 | 0.58 | 1.3 | 0.646 | 0.642 | 0.788 | 0.897 | 0.397 | 0.872 | 0.565 | 0.948 | 0.831
LRFDSYWSFCN [SLC20A2_Y433_S434W_YF] | 0.781 | 1.4 | 2.12 | 2.72 | 0.774 | 0.506 | 1.04 | 0.572 | 1.49 | 1.33 | 1.64 | 2.1 | 1.25 | 0.726 | 1.01 | 0.945
LRKQDYQEILD [SLC35G2_Y403] | 0.629 | 0.708 | 0.529 | 0.468 | 0.379 | 0.434 | 0.632 | 0.364 | 0.999 | 1.17 | 0.629 | 0.47 | 0.995 | 6.76 | 0.82 | 0.606
LRRQDYQEILD [SLC35G2_Y403_K400R] | 0.621 | 0.783 | 0.492 | 0.376 | 0.898 | 0.509 | 0.838 | 0.622 | 1.06 | 1.58 | 0.727 | 0.352 | 1.35 | 3.37 | 0.78 | 0.767
LSSEMYVKSFT [F5_Y2149_YF] | 0.684 | 0.975 | 0.647 | 0.307 | 0.788 | 0.837 | 0.609 | 0.641 | 0.965 | 1.27 | 1.15 | 0.933 | 1.35 | 0.364 | 0.676 | 0.708
LSVEIYDRREY [ITGB7_Y753] | 0.801 | 0.869 | 0.675 | 0.765 | 0.816 | 0.587 | 0.669 | 0.581 | 0.965 | 1.4 | 0.618 | 2.23 | 1.52 | 0.523 | 0.602 | 0.437
LTQRTYMSENN [GPAA1_Y49_A54N] | 1.01 | 1.09 | 0.479 | 0.549 | 0.879 | 0.867 | 0.783 | 0.87 | 0.67 | 1.46 | 1.13 | 0.703 | 1.11 | 0.442 | 0.709 | 0.676
LVFIKYLPEWT [PSEN1_Y240] | 1.11 | 1.27 | 0.361 | 0.4 | 0.734 | 0.744 | 0.898 | 0.769 | 1.97 | 1.92 | 0.615 | 0.555 | 1.78 | 0.902 | 1.6 | 1.43
LVQAEYWRDPI [PPT1_Y185_H187R] | 0.816 | 1.22 | 0.961 | 0.691 | 0.931 | 0.693 | 0.891 | 0.614 | 1.46 | 1.72 | 1.71 | 0.423 | 1.55 | 0.914 | 0.818 | 1.14
MAHDRYAAICS [OR8H2_Y123] | 0.396 | 0.439 | 0.437 | 0.424 | 0.444 | 0.372 | 0.41 | 0.424 | 0.44 | 0.646 | 0.494 | 0.48 | 0.547 | 5.4 | 0.9 | 1.91
MALDRYVASCK [OR2B11_Y127_I130S] | 0.592 | 0.569 | 0.421 | 0.436 | 0.593 | 0.475 | 0.465 | 0.385 | 0.667 | 0.846 | 0.397 | 0.435 | 0.649 | 0.579 | 0.799 | 0.698
MCVKSYTIHYS [F5_Y2153_Y2149C] | 0.726 | 0.878 | 0.517 | 0.45 | 0.569 | 0.636 | 0.682 | 0.459 | 0.942 | 1.26 | 0.513 | 0.552 | 1.12 | 0.472 | 0.811 | 0.592
